Earlier results in publication PMC3310959.

Target: E-cadherin (Mus musculus) (UniProt P09803)

Substance: E-cadherin (from UniProt P09803)
- Kd: 97 µM
